From the DeepSol protein solubility set

Test: soluble on expression in E. coli; label from the status in PepcDB or PDB records

Sequence	soluble on expression in E. coli
STKTNVVEVLNKQVANWNVLYVKLHNYHWYVTGPHFFTLHEKFEEFYNEAGTYIDELAERILALEGKPLATMKEYLATSSVNEGTSKESAEEMVQTLVNDYSALIQELKEGMEVAGEAGDATSADMLLAIHTTLEQHVWMLSAFLK	soluble
MAHHHHHHMGGQSSVTTTPEQIPVNGKSLDWGPPPDDIPEEERDNEELVLQTWAFCKAKPSPAQNYRSDVEERKRRQSMLWRKRASFIELDCGEDSFFVSNTYKVIGVADGVGGWRDEGVDASHFANSLMENAKHFSETHRKELNPEVILQSAFDKVLHDKVVKAGSSTACVVALQKDSSGEHYLDVANVGDSGVLVVRNRQVQHRVHEKVHGFNAPFQLAVLPPHLQGRAFSDRVSDATREKIPVQRGDVVITGTDGLFDNRFNISLAADAGWIGHVQGSALERVPLVGLLLGPIFANDKVAYVDPQRVAQRIVQDAYKTSLDESAHTPWASMLRKFGVEDAKGGKVDDITLVLSRVTTREELNATSTW	not soluble
QLEKELEESAARYNQLAAQSRTITWEIDVTGLFTYVSPVVESVFGYLPNELVGAMRFYEIHPTEGRERFKTSFLEMFASKTIVEEVVHPVVAVDGRTIWMSTNALPILDEHGTLVGYRGACTDIS	not soluble
SMAENGDNEKMAALEAKICHQIEYYFGDFNLPRDKFLKEQIKLDEGWVPLEIMIKFNRLNRLTTDFNVIVEALSKSKAELMEISEDKTKIRRSPSKPLPEVTDEYKNDVKNRSVYIKGFPTDATLDDIKEWLEDKGQVLNIQMRRTLHKAFKGSIFVVFDSIESAKKFVETPGQKYKETDLLILFKDDYFAKKNE	soluble
MSCFRGDVDFCPECGNILPLPSRLNTITCPRCSFKISVQDFTSQVIKSSVMFNPLDQSNVAVGSAEDAELKGPVIDRKCSRCNKEGMVYHTRQMRSADEGQTVFFTCIHCRFQEKEDS	not soluble
MEQMRFKPRPFVKPVKFKCKFCLDCCKGRHVYLTLNDIKRLIDAGYDPQDFLTISIEDGKIRFVLSVREWDLGCVFQDPETGLCKVHPHRPLICRIYPFMVSKKPLGIKGEKKFEINGKSFWLYYDENCPGINDEDGDTITPEEILKLGIKFEEELEATDLDGFLKILRSLEHHHHHH	soluble
MGSDKIHHHHHHMGHYEHKTKEELLEIVCKLEKKVEGLSSELDSLKKGRFRERYSTRILDALPDMLTVFDHNANIVELASSPTTNHVEGTTSDSIINSNVKDIVPEEAYESVRHNMDKVIHTGKSSTAEHSLMLDGVLHHYENRIFPLDDQYLLCMCRDVSQETEMAKINETQRSEIVRLNSLMNDILNNIPVYLFVKDTGNDFRYLYWNKAFAEHSGISVQRAVGSTDADIFPDKKDAEHFREDDLKVMKLGRIEYLENYTTMSGEVRTVTTMKTVVPSGGQHPYIIGVSWDVTEIKKTEKELIAARIKAEEADRMKSSFLANMSHEIRTPLNAIVGFSKLIIEADNECEKRQYADIVEHNSTVLLNLFNDILDLSALEAGSLELSYHPVRLKDICLQLYELHVKSVKPEVRLVLDEVDSQLCIQGDWERISQVLVNLITNAIKFTSVGEIHFGFQKKADMVQFYMSDTGKGIPAERVATIFQRFGKIDDFVQGTGLGLTICRMLVEKMGGRIWVRSKQGEGTVFYFTLPMAK	not soluble
MQDLICYKKMPQWNSQTLPAAFQEKHNTQEGTWAKLTVLKGEMTFSMLTEDGDTLETFHFSEQNQPPFVEPQAWHRIVSFSDDLECQLSFFCSAEDFYHKKYGLTQTHSEVINAVQHIKPGKTLDLGCGGGRNSLYLNLRGFDVTACDKHEQSIDSLNNIIQSEALENIRAGVYNINLAEIKEQYDFILSTVVLMFLERDRIPHIISNMQGSTVDGGYNLIIAAMSTEDCPCPMPFSFTFKEDELKNYYADWEILKYNEDMGELHKTDAQGNRIKLRFATLLARKPLEHHHHHH	soluble
MILSDKDIIDYVTSKRIIIKPFNKDFVGPCSYDVTLGDEFIIYDDEVYDLSKELNYKRIKIKNSILVCPLNYNLTEEKINYFKEKYNVDYVVEGGVLGTTNEYIELPNDISAQYQGRSSLGRVFLTSHQTAGWIDAGFKGKITLQIVAFDKPVILYKNQRIGQLIFSKLLSPADVGYSERKTSKYAYQKSVMPSLIHLDNHKKD	soluble
MGLTISSLFSRLFGKKQMRILMVGLDAAGKTTILYKLKLGEIVTTIPTIGFNVETVEYKNICFTVWDVGGQDKIRPLWRHYFQNTQGLIFVVDSNDRERIQEGAAVLEKMLLEDELQDAVLLLFANKQDLPNAMAISEMTDKLGLQSLRNRTWYVQATCATQGTGLYEGLDWLSHELSNVK	soluble
MAAMITPPGAGVKDKKRAILEATLAVLRERGLSGLKMEEVARRAEVGKGTIYLYFRDKRDLLKALVEERTWAFYREVEEVVRRKAPFFVRLEEVLRRRLAWVQEWRGLWAAVAREAMDDPTPWLKGLHEHYLRLLEELLRSGQSEGAVRTGLSPRATAAVIAAMGCTPSLEVEAYLEHLMEVLRKGVEP	soluble
MGSDKIHHHHHHMPTRVIEDKGDMTPSFGIDDRIFLGEGLFETIRVNSSKPSFAYMHWERLGNSARQLGIPFEISFDDWFEHLIQKIQKDNLYHGGIKAILSGGPASRGLAERGQVSQLIFQTFNYSIQKHPVRLISINWLRDKANPLYQLKSVNYLEAIIAQRQAIAVGADDALFFNTENHVTETTCANLFLIENNILYTPRVEDGILPGITRARLISHCQQHKMSVQEISLTKKRIEDADAVFLTNSLQGIRRVLSLDNIIFEVNHPIIDKLIFLLNQDES	not soluble
MSDKNIQDRAAGAIMGAFIGDALGLGPHWYYDLSELRRDYDDWITGYTDPKPDRYHAGLKAGQLSQSGFILKLMVRSLVGCGGYDTEDFCHRMDEELFPLLDGTPVNGPGGYTSQSIRETWRRRVQQMLPWGQTGGHADTTEAVERTLAIAVRYAYQPEQLAAAVSANTTLTQTDETIVSMTVAYGAVLGLLIQGHALDTGLSGKLMDLVKSGALPFHAVTGDDLQPPRPGDPDPPRAGRFASPDALLTPSYMAAAAVDPEIRIEPAWKVSIVYGMPCAIYHQLPAAYYLAARFRDDFKSAVLHAVNGGGQNQARAMLTGALAGAQTGLSGIPQYLLDGLDNSAVLGKLAVELAASVNPIMAGDPNSLEHHHHHH	not soluble
MGSDKIHHHHHHQNTPIGENIELAGENPEELKVIYINKDVSTHFIAMEDIKYVDISVNDIVGDIPTGNSLRIKPTKEGASGVITIVTERFFVQYMLVYSSDLAKAYTRFNIPYADLRSYMNPEVNLTKAQMYDYAHRMFISKNKFYDVSSTSNLMKIVLNNIYTLDKYFFIDISMINKTKIRYDIDQIRFKIEDKKQTKATNFQSIEILPLMQVNKNLVFKKNYRNIFVFEKFTFPDEKVLTIEISEKQISGRTITLRIDYADILHADAFTE	not soluble
MGSDKIHHHHHHAAVKKIIEMGQNDNQVMHQLDILTNRFGGRLIGSDAYENAAEWMVREFKSWGLDVQLEEAGTVPVGFNRGPWFGRLLSDNGMILHFATPSYTSGTKGVQRGHAVMEPRNDEEFQQIKGRLNGAWVLISGKNVGWPIDRSASGDSIRAEIKKENNEIMKKNNDLRRRNWENGEKNEMLPYKEFPGLYYKEMCEAGALGFIQSSTVPIRALYDRKMMNDPNTNFDNLPELPDIKLDEHQFAIIEQMVKERRTFELEFDIRNHFKLGPVKYHNVVASIKGSKYPDEYVIISGHLDAFDVATGGIDCGTGIGPMMEAARMIAKSGAKPKRTILFIGFAGEEFGLLGAQAWVKAHKDKLPKIANLFNRDGGPEPPVGISVPQAMYDDFVKISEPIQKIRPDYPFEVKVREPRKRPTRMGGTDASVFAIEGVPTLGFTTEDFKGYDFDYGEIWHTERDLYTKNIPEYQEHTATVTAIIALGVANLDKQLSREGLYTEE	not soluble
MAHHHHHHMSLITTICRHPLASKRFMIVFRNEEGEELPEIFELRTRYEAIAPIAKGAYGFVCAATDNDLVENFHMSPPEEYNDPSLSKEERLDIYESHTTVAVKKLRQLFEQNRPRMWLCATREIQLMMAFKHENVMSALDFFIPLGDCERMTYESVEYLRHNFDSVYIVMKKMEYTLREVLESSVFTTTDTQDECGKLSNGKITSSAGTEKHDDGAHDDINKSTARRNERIARCPQTHLVLHPLARDYRMFILYQLLRGVGYMHLCLVIHRDIKPENIMLDRNYNTRVCDFGQGRDAVATELDGVLQTFLDNCTQWYAAPETLTLANVSSPSGFVDQKTLHAADVWSIGCIAAEMVIGRPLFYCRHSGGVGQLNAIMGVLGKIPEEAAERILQHRDEDTQKLFESVMRREMQQHLHKPSTLRRLLQSPYGDVDEEEIRLIERLLCYDPSQRITIQEALQSNYFINEGYEPVIDPDDTATHVRAVEAKEVVDAVRGRRFLWSLFLKHHPEVEELMRVLEIRRNSSSTDSTEVPPPACV	soluble
MAKYNEKKEKKRIAKERIDILFSLAERVFPYSPELAKRYVELALLVQQKAKVKIPRKWKRRYCKKCHAFLVPGINARVRLRQKRMPHIVVKCLECGHIMRYPYIKEIKKRRKEKMEYGGLVPR	soluble
MWQRIRLLQTLVSQKGAATAAAGAASSSPTAAAAAATTAAPPSPAPSVAADNERSFLRNLIPMRVYSSGPPSIYLRHAFLNQDRLIRRFLGALEAVPLPSLPRLLLAEGFQRMLEGDVPQRELRELFEDAEVECRKMLLHMDVSKSGHRRYHDSHADPRDQEMWHAVRHDPLRRLLAHELRAACSHYARLMGVSSSPYVPAAVIVRTIIASDVRTDNFLVKMTLAFERHPRNVETGEPVGEAMPPVVEELMKELLLLERDAFGCFRFDPRGDNHHLVHSLKLADITKTPRSFSVMRDPLMKRYGNYCVECEEVHKGRWNQYKVHCGPEDHRIDPALPLFESVVATDPITGGALNMLVHYDEPICLRHKHSLREEKGNFGHTEVFELAMDVTNRTFWERYFLDR	soluble
GPGSMSEPHVPTAAAQQPSAEATANAALTADSTVHTSPQAPPPPAASGASTVSANVAEVKSVTATLSDVADSTEPLLVGKVVSSEIAQARSQPCTSDLNTAQSGAGAPVDANVGEQDRCSPPAKSTSSSSSSHSGEESSDEAADFETKELMFAFGRYVGQVNPQTGLRHGHGCQYYNNGNVYTGEWRDGAPDGFGEKRYRNGDVYRGNWRQGKRSGRGVYLFVQGDTYEGMYADDKPEGQGTYATLKGDRYTGQWKAGQRHGTGRETLANGQVFVGNWRYGKKQGRGKLYLPGSEKCIYGIWNNDRFFRELTANEMGADGAEDVVDELGTQRRPSALSVALPGAKAPPPSASLADRVRMGVTALENRMESLGKALERVITGGDGDESAHVPRAAAMGAASSTAGDVAVSEECTEPPAQGFVVNSHQANDEDGEQG	soluble
GLESFSLTSHEKKFGVNIEFSDVNFSYPKQTNHRTLKSINFFIPSGTTCALVGHTGSGKSTIAKLLYRFYDAEGDIKIGGKNVNKYNRNSIRSIIGIVPQDTILFNETIKYNILYGKLDATDEEVIKATKSAQLYDFIEALPKKWDTIVGNKGMKLSGGERQRIAIARCLLKDPKIVIFDEATSSLDSKTEYLFQKAVEDLRKNRTLIIIAHRLSTISSAESIILLNKGKIVEKGTHKDLLKLNGEYAEMWNMQSGGNDI	soluble
MGSDKIHHHHHHMNKPLDKQLAELDIFSLLLFRAIFETGHANIAARQLDVSAPKVSRALASLRLIFADELFYRRQQGFRPTPLAEQIYPAIRELTDSINLLGMQLKDHQAFHRQECQVFDLAVSSGILTTLALEFNRREGLCPSVVLHHWQENTADRIHAGELDLGLALAPEPHTELSYERLCDAPGLCLVGAANHPIWQYTDICLEHICEYPFLCMNYPGFNDKVDPLELFCHREGLIPPTVLRVTDKEEWFGHLLCQHSLAFASPLEWGLLNALPGVEIKHLPAKEISRLHSGSAVPGLYLIEKPAHHRRYSPDDREKLLHIISLTLGLVTEDHPVNFSI	not soluble
